Patent publication US20140363428A1 (Chugai, published 2014)
Substitutions are numbered along the chain they refer to.

B1: IgG1-F1138 (antibody)
heavy: QVQLQESGPGLVKPSETLSLTCAVSGHSISHDHAWSWVRQPPGEGLEWIGFISYSGITNYNPSLQGRVTISRDNSKNTLYLQMNSLRAEDTAVYYCARSLARTTAMDYWGEGTLVTVSSASTKGPSVFPLAPSSKSTSGGTAALGCLVKDYFPEPVTVSWNSGALTSGVHTFPAVLQSSGLYSLSSVVTVPSSSLGTQTYICNVNHKPSNTKVDKKVEPKSCDKTHTCPPCPAPELRGGPKVFLFPPKPKDTLYISRTPEVTCVVVDVSHEDPEVKFNWYVDGVEVHNAKTKPREEQYNSTYRVVSVLTVLHQDWLNGKEYKCKVSNKALPAPIEKTISKAKGQPREPQVYTLPPSRDELTKNQVSLTCLVKGFYPSDIAVEWESNGQPENNYKTTPPVLDSDGSFFLYSKLTVDKSRWQQGNVFSCSVMHEALHYHVTRKELSLSP
light: not shown
B2: F1605 (antibody)
chain 1: B1 heavy with S256T, R257L, T258E, H435D, E442D
chain 2: DIQMTQSPSSLSASVGDSVTITCQASTDISSHLNWYQQKPGKAPELLIYYGSHLLSGVPSRFSGSGSGTDFTFTISSLEAEDAATYYCGQGNRLPYTFGQGTKVEIERTVAAPSVFIFPPSDEQLKSGTASVVCLLNNFYPREAKVQWKVDNALQSGNSQESVTEQDSKDSTYSLSSTLTLSKADYEKHKVYACEVTHQGLSSPVTKSFNRGEC
B3: F1599 (antibody)
chain 1: B1 heavy with S256T, T258E, H435D, R440K, E442D
chain 2: B2 chain 2
B4: F1653 (antibody)
heavy: B1 heavy with S256T, T258E, H435S, R440K
light: B2 chain 2
B5: IgG1-F1263 (antibody)
heavy: B1 heavy with R440K, E442D
light: not shown
B6: IgG1-F1329 (antibody)
heavy: B1 heavy with G238R, S256T
light: not shown
B7: F1654 (antibody)
heavy: B1 heavy with S256T, T258E, H435S, E442D
light: B2 chain 2
B8: F1655 (antibody)
heavy: B1 heavy with S256T, T258E, H435S, R440K, E442D
light: B2 chain 2
B9: IgG1-F1331 (antibody)
heavy: B1 heavy with G238R, S256T, T258E
light: not shown
B10: F1566 (antibody)
heavy: B1 heavy with S256T, T258E, N288E, H435D, R440K
light: B2 chain 2
B11: IgG1-F1351 (antibody)
heavy: B1 heavy with V438F
light: not shown
B12: F1604 (antibody)
heavy: B1 heavy with S256T, R257L, T258E, H435D, R440K, E442D
light: B2 chain 2
B13: IgG1-F1350 (antibody)
heavy: B1 heavy with V438F, R440K
light: not shown
B14: IgG1-F1306 (antibody)
heavy: B1 heavy with H435D, R440K
light: not shown
B15: IgG1-F1344 (antibody)
heavy: B1 heavy with V438T, R440K
light: not shown
B16: IgG1-F1261 (antibody)
heavy: B1 heavy with E442D
light: not shown
B17: IgG1-F1349 (antibody)
heavy: B1 heavy with V438T
light: not shown
B18: IgG1-F1269 (antibody)
heavy: B1 heavy with H435D, R440K, E442D
light: not shown
B19: IgG1-F1262 (antibody)
heavy: B1 heavy with R440K
light: not shown
B20: F1601 (antibody)
heavy: B1 heavy with S256T, T258E, N288E, H435D, R440K, E442D
light: B2 chain 2
B21: F1603 (antibody)
heavy: B1 heavy with S256T, R257L, T258E, H435D, R440K
light: B2 chain 2
B22: IgG1-F1305 (antibody)
heavy: B1 heavy with H435D, E442D
light: not shown
B23: IgG1-F1124 (antibody)
heavy: B1 heavy with R237L, K241S, T252V, T309Q, V310P, Q313A
light: not shown
notes: VH3-IgG1 with Fc substitutions (EU numbering) + L(WT)-CK
B24: IgG1-F1122 (antibody)
heavy: B1 heavy with R237L, K241S, T252V, T309Q, V310P, Q313A, E442S
light: not shown
notes: as for B23
B25: IgG1-F1121 (antibody)
heavy: B1 heavy with R237L, K241S, T252V, T309Q, V310P, Q313A, V424E, S426R, R440Q, E442S
light: not shown
notes: as for B23
B26: IgG1-F1130 (antibody)
heavy: B1 heavy with R237L, K241S, T309A, Q313A, R440Q, E442S
light: not shown
notes: as for B23
B27: IgG1-F1129 (antibody)
heavy: B1 heavy with R237L, K241S, T309Q, Q313H, R440Q, E442S
light: not shown
notes: as for B23
B28: IgG1-F1136 (antibody)
heavy: B1 heavy with V424E, S426R, R440Q, E442S
light: not shown
notes: as for B23
B29: IgG1-F1143 (antibody)
heavy: B1 heavy with V424S, S426R
light: not shown
notes: as for B23
B30: IgG1-F1144 (antibody)
heavy: B1 heavy with T252V, T309Q, V310P, Q313A
light: not shown
notes: as for B23
B31: IgG1-F1133 (antibody)
heavy: B1 heavy with S426R, R440Q, E442S
light: not shown
notes: as for B23
B32: IgG1-F1146 (antibody)
heavy: B1 heavy with T252V, T309Q, Q313A
light: not shown
notes: as for B23
B33: IgG1-F1128 (antibody)
heavy: B1 heavy with R237L, K241S, Q313H, R440Q, E442S
light: not shown
notes: as for B23
B34: IgG1-F1147 (antibody)
heavy: B1 heavy with R237L, K241S, T309Q, Q313A, V438Y
light: not shown
notes: as for B23
B35: IgG1-F1137 (antibody)
heavy: B1 heavy with V424S, S426R, R440Q, E442S
light: not shown
notes: as for B23
B36: IgG1-F1145 (antibody)
heavy: B1 heavy with R237L, K241S, T252V, T309Q, Q313A
light: not shown
notes: as for B23
B37: IgG1-F1151 (antibody)
heavy: B1 heavy with S426N, V438Y, R440Q, E442S
light: not shown
notes: as for B23
B38: IgG1-F1158 (antibody)
heavy: B1 heavy with V438Y
light: not shown
notes: as for B23
B39: IgG1-F1135 (antibody)
heavy: B1 heavy with R440Q
light: not shown
notes: as for B23
B40: IgG1-F1142 (antibody)
heavy: B1 heavy with V424E, S426R
light: not shown
notes: as for B23
B41: IgG1-F1140 (antibody)
heavy: B1 heavy with R237L, K241S, V424E, S426R
light: not shown
notes: as for B23
B42: IgG1-F1157 (antibody)
heavy: B1 heavy with R237L, K241S, V438Y
light: not shown
notes: as for B23
B43: IgG1-F1139 (antibody)
heavy: B1 heavy with S426N, R440Q, E442S
light: not shown
notes: as for B23
B44: IgG1-F1126 (antibody)
heavy: B1 heavy with R237L, K241S, T309A, R440Q, E442S
light: not shown
notes: as for B23
B45: IgG1-F1152 (antibody)
heavy: B1 heavy with T309Q, Q313A, S426N, V438Y, R440Q, E442S
light: not shown
notes: as for B23
B46: IgG1-F1127 (antibody)
heavy: B1 heavy with R237L, K241S, Q313A, R440Q, E442S
light: not shown
notes: as for B23
B47: IgG1-F1131 (antibody)
heavy: B1 heavy with V424E, R440Q, E442S
light: not shown
notes: as for B23
B48: IgG1-F1134 (antibody)
heavy: B1 heavy with E442S
light: not shown
notes: as for B23
B49: IgG1-F1148 (antibody)
heavy: B1 heavy with T309Q, Q313A, V438Y
light: not shown
notes: as for B23
B50: IgG1-F1153 (antibody)
heavy: B1 heavy with T252V, T309Q, Q313A, S426N, R440Q, E442S
light: not shown
notes: as for B23
B51: IgG1-F1138 (antibody)
heavy: B1 heavy
light: not shown
notes: as for B23
B52: IgG1-F1154 (antibody)
heavy: B1 heavy with T252V, T309Q, V310P, Q313A, S426N, R440Q, E442S
light: not shown
notes: as for B23
B53: IgG1-F1141 (antibody)
heavy: B1 heavy with R237L, K241S, V424S, S426R
light: not shown
notes: as for B23
B54: IgG1-F1123 (antibody)
heavy: B1 heavy with R237L, K241S, T252V, T309Q, V310P, Q313A, R440Q
light: not shown
notes: as for B23

Target: T1, soluble human FcRn (human, UniProt P55899 24-297; P61769 21-119)
T1 construct: Heterodimer of alpha chain and beta2-microglobulin; also called hFcRn
Experiment: SPR (Biacore), pH 7.0

Row | Kd [nM] | Binder
1 | 170 | B1
2 | 61 | B2
3 | 74 | B3
4 | 45 | B4
5 | 120 | B5
6 | 130 | B6
7 | 45 | B7
8 | 44 | B8
9 | 77 | B9
10 | 40 | B10
11 | 160 | B11
12 | 60 | B12
13 | 120 | B13
14 | 190 | B14
15 | 400 | B15
16 | 140 | B16
17 | 340 | B17
18 | 170 | B18
19 | 130 | B19
20 | 35 | B20
21 | 59 | B21
22 | 200 | B22

Target: T2, soluble human FcRn (heterodimer of FcRn alpha chain and beta2-microglobulin) (human, UniProt P55899 24-297; P61769 21-119)
T2 construct: Expressed in HEK293H and purified on IgG Sepharose; also called hFcRn
Experiment: SPR Biacore T100, antibody captured via protein L, hFcRn analyte, pH 7.0, 25 C;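 also: KD derived from kinetic ka and kd fits of sensorgrams, CM4 sensor chip, sodium phosphate NaCl Tween20 running buffer, buffer-only injection used as reference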
Procedure: An appropriate amount of protein L (ACTIGEN) was immobilized onto Sensor chip CM4 (GE Healthcare) by the amino coupling method, and the chip was allowed to capture an antibody of interest. Then, diluted FcRn solutions and running buffer (as a reference solution) were injected to allow human FcRn to interact with the antibody captured on the sensor chip. The running buffer used comprised 50 mmol/l sodium phosphate, 150 mmol/l NaCl, and 0.05% (w/v) Tween20 (pH 7.0). FcRn was diluted using each buffer. The chip was regenerated using 10 mmol/l glycine-HCl (pH 1.5). Assays were carried out exclusively at 25 degrees C. The association rate constant ka (1/Ms) and dissociation rate constant kd (1/s), both of which are kinetic parameters, were calculated based on the sensorgrams obtained in the assays, and KD (M) of each antibody for human FcRn was determined from these values. Each parameter was calculated using Biacore T100 Evaluation Software (GE Healthcare).

Row | Kd [nM] | Binder
23 | 12 | B23
24 | 14 | B24
25 | 10 | B25
26 | 55 | B26
27 | 45 | B27
28 | 160 | B28
29 | 200 | B29
30 | 14 | B30
31 | 160 | B31
32 | 62 | B32
33 | 120 | B33
34 | 72 | B34
35 | 160 | B35
36 | 52 | B36
37 | 250 | B37
38 | 240 | B38

Row | Kd [nM] | Binder
39 | 130 | B39
40 | 190 | B40
41 | 160 | B41
42 | 210 | B42
43 | 150 | B43
44 | 90 | B44
45 | 74 | B45
46 | 79 | B46
47 | 130 | B47
48 | 170 | B48
49 | 76 | B49
50 | 48 | B50
51 | 170 | B51
52 | 13 | B52
53 | 180 | B53
54 | 9.5 | B54
